Test results published in US20150004189A1 (published 2015).

Tests used:
[1] = target: HLA-DQ molecule DQB1*0502 (human); assay: competition: inhibition of radiolabeled peptide binding to purified HLA
[2] = target: HLA-DQ molecule DQB1*0503 (human); assay: as above
[3] = target: HLA-DQ molecule DQB1*0602 (human); assay: as above
[4] = target: HLA-DQ molecule DQB1*0202 (human); assay: as above
[5] = target: T1, HLA DQ molecule DQB1*0302 (human, UniProt P01909 24-216; P01920 33-230, limits assumed); assay: inhibition of radiolabeled peptide binding to purified HLA class II
T1 MHC II alpha: not shown
T1 MHC II beta: not shown

[6] = target: T2, HLA DQ molecule DQB1*0501 (human, limits assumed); assay: as above
T2 MHC II alpha: not shown
T2 MHC II beta: not shown

[7] = target: HLA DQ molecule DQB1*0502 (human); assay: as above
[8] = target: HLA DQ molecule DQB1*0503 (human); assay: as above
[9] = target: HLA DQ molecule DQB1*0602 (human); assay: as above
[10] = target: HLA DQ molecule DQB1*0202 (human); assay: as above
[11] = target: HLA-DQ molecule DQB1*0202 (human); assay: inhibition of radiolabeled peptide binding to purified HLA
[12] = target: T3, HLA-DQ molecule DQB1*0501 (human, limits assumed); assay: as above
T3 MHC II alpha: not shown
T3 MHC II beta: not shown

[13] = target: HLA-DQ molecule DQB1*0502 (human); assay: as above
[14] = target: HLA-DQ molecule DQB1*0503 (human); assay: as above
[15] = target: HLA-DQ molecule DQB1*0602 (human); assay: as above
[16] = target: T4, HLA-DQ molecule DQB1*0501 (human, limits assumed); assay: inhibition of radiolabeled peptide binding to purified HLA-DQ
T4 MHC II alpha: not shown
T4 MHC II beta: not shown

[17] = target: HLA-DQ molecule DQB1*0503 (human); assay: as above
[18] = target: HLA-DQ molecule DQB1*0602 (human); assay: as above
[19] = target: HLA-DQ molecule DQB1*0202 (human); assay: as above
[20] = target: HLA-DQ molecule DQB1*0301 (human, UniProt P01909 24-216; P01920 33-230, limits assumed); assay: as above
[21] = target: T5, HLA-DQ molecule DQB1*0302 (human, UniProt P01909 24-216; P01920 33-230, limits assumed); assay: as above
T5 MHC II alpha: not shown
T5 MHC II beta: not shown

[22] = target: T6, HLA-DQ molecule DQB1*0402 (human, UniProt P01909 24-216; P01920 33-230, limits assumed); assay: as above
T6 MHC II alpha: not shown
T6 MHC II beta: not shown

[23] = target: HLA DQ molecule DQB1*0202 (human); assay: inhibition of radiolabeled peptide binding to purified HLA DQ
[24] = target: HLA DQ molecule DQB1*0503 (human); assay: as above
[25] = target: HLA DQ molecule DQB1*0602 (human); assay: as above
[26] = target: HLA DQ molecule DQB1*0502 (human); assay: as above
[27] = target: T7, HLA-DP molecule DPB1*0101 (human, UniProt P20036 29-222; P04440 30-225, limits assumed); assay: inhibition of radiolabeled peptide binding to purified HLA-DP
T7 MHC II alpha: not shown
T7 MHC II beta: not shown

[28] = target: T8, HLA-DP molecule DPB1*0201 (human, UniProt P20036 29-222; P04440 30-225, limits assumed); assay: as above
T8 MHC II alpha: not shown
T8 MHC II beta: not shown

[29] = target: T9, HLA-DP molecule DPB1*0501 (human, UniProt P20036 29-222; P04440 30-225, limits assumed); assay: as above
T9 MHC II alpha: not shown
T9 MHC II beta: not shown

[30] = target: HLA-DP molecule DPB1*2001 (human); assay: as above
[31] = target: HLA-DP molecule DPB1*1401 (human); assay: as above
[32] = target: T10, HLA-DP molecule DPB1*0401 (human); assay: as above
T10 chain 1: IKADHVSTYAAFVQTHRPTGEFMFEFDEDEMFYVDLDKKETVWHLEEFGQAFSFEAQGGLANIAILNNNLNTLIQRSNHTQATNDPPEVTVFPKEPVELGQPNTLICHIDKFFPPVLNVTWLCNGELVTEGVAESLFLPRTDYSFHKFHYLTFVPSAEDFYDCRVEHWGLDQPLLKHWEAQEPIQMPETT
T10 chain 2: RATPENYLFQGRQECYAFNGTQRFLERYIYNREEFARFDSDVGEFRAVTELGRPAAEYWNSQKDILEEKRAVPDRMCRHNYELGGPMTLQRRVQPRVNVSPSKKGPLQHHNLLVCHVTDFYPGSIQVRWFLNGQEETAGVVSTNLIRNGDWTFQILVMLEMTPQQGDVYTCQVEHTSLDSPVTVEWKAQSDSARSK

[33] = target: T11, HLA-DP DPB1*0401 (human); assay: as above
T11 chain 1: T10 chain 1
T11 chain 2: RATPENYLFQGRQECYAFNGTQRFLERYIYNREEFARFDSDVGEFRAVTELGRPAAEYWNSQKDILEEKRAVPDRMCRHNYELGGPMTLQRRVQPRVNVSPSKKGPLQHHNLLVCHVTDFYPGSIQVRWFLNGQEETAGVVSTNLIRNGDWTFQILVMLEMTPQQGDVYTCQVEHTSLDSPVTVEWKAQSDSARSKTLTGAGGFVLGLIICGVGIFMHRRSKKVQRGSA

INELIASGSEKLASV [Alt a 5 peptide, position 51, Peptide ID 3324.0065] showed an IC50 [1] of 25900 nM, an IC50 [2] of 7540 nM and an IC50 [3] of 302 nM.

With GGRLAFQEFMIVPCE [Alt a 6 peptide, position 161, Peptide ID 3324.0073] the IC50 [4] was 32100 nM, the IC50 [2] was 4940 nM and the IC50 [3] was 1290 nM.

AQGKAFYEAVAKAHQ [Alt a 7 peptide, position 190, Peptide ID 3324.0080] gave an IC50 [4] of 50000 nM and an IC50 [3] of 2360 nM.

Binder PAVKYIEPDMIVNAT [Pen ch 13 (101-115) peptide PAVKYIEPDMIVNAT, Peptide ID 3324.1304] has an IC50 [5] of 822 nM, an IC50 [6] of 119 nM and an IC50 [7] of 1960 nM. It also gave an IC50 [8] of 1790 nM and an IC50 [9] of 549 nM.

QVAQYKALPVVLENA [Fel d 1 1 (46-60) peptide QVAQYKALPVVLENA, Peptide ID 3324.1051] gave an IC50 [10] of 21400 nM, an IC50 [7] of 552 nM and an IC50 [8] of 610 nM. For the same binder, the IC50 [9] was 1600 nM.

Work on EIYNMVKFRMIAGQE [Der p 4 peptide 3324.0978 (position 386)] yielded an IC50 [11] of 29100 nM, an IC50 [12] of 3700 nM and an IC50 [13] of 26600 nM. For the same binder, the IC50 [14] was 11200 nM and the IC50 [15] was 368 nM.

For ERSLWIIFSKNLNIK [Cha o 1 (86-100) peptide ERSLWIIFSKNLNIK], the IC50 [16] was 729 nM, the IC50 [17] was 301 nM and the IC50 [18] was 432 nM.

Binder NLNIKLNMPLYIAGN [Cha o 1 (96-110) peptide NLNIKLNMPLYIAGN] has an IC50 [19] of 39700 nM, an IC50 [20] of 31900 nM and an IC50 [21] of 50000 nM. For the same binder, the IC50 [22] was 30400 nM, the IC50 [17] was 10700 nM and the IC50 [18] was 2860 nM.

For QKLMEDINVGFKAAV [Poa p 5 peptide, position 51 (Peptide ID 3324.1580)], the IC50 [23] was 8070 nM, the IC50 [24] was 5210 nM and the IC50 [25] was 1290 nM.

With DINVGFKAAVAAAAG [Poa p 5 peptide, position 56 (Peptide ID 3324.1571)] the IC50 [26] was 5410 nM and the IC50 [25] was 34 nM.

With FKAAVAAAAGAPPAD [Poa p 5 peptide, position 61 (Peptide ID 3324.1575)] the IC50 [23] was 25700 nM, the IC50 [26] was 6780 nM and the IC50 [24] was 1380 nM. The IC50 [25] was 793 nM.

Work on ATPEAKFDSFVAAFT [Poa p 5 peptide, position 121 (Peptide ID 3324.1570)] yielded an IC50 [26] of 8000 nM and an IC50 [24] of 910 nM.

Work on EGTVDFIFGEARSLY [Sal k 1 1 peptide, position 191 (Peptide ID 3324.1590)] yielded an IC50 [23] of 3120 nM, an IC50 [26] of 6850 nM and an IC50 [24] of 2360 nM.

Work on FTSLEYIEAAKWLLP [Sal k 1 1 peptide, position 321 (Peptide ID 3324.1589)] yielded an IC50 [25] of 1300 nM.

In the case of DSYKFIPTLVAAVKQ [Lol p 5 1 peptide, position 236, DSYKFIPTLVAAVKQ (Peptide ID 3324.1165)], the IC50 [27] is reported as 79 nM, the IC50 [28] is reported as 69 nM and the IC50 [29] is reported as 6.9 nM. The IC50 [30] was 12 nM.

Binder PAAAYATATPAAATA [Lol p 5 1 peptide, position 306, PAAAYATATPAAATA (Peptide ID 3324.1184)] has an IC50 [28] of 3490 nM, an IC50 [29] of 12400 nM and an IC50 [31] of 299 nM. For the same binder, the IC50 [30] was 611 nM.

NDKFTVFEGAFNKAI [Pha a 5 peptide, position 181, NDKFTVFEGAFNKAI (Peptide ID 3324.1442)] gave an IC50 [27] of 613 nM, an IC50 [28] of 28 nM and an IC50 [30] of 97 nM. It also gave an IC50 [32] of 177 nM.

With EGTVDFIFGEARSLY [Sal k 1 1 peptide 191-205, EGTVDFIFGEARSLY (Peptide ID 3324.1590)] the IC50 [33] was 2040 nM.
